Like-named read-outs stand apart in the source and are kept apart here.
Key:
[1] = tested on: T1, Human DNA ligase 3 (hLig3 beta) (Homo sapiens), P49916-4
T1 sequence: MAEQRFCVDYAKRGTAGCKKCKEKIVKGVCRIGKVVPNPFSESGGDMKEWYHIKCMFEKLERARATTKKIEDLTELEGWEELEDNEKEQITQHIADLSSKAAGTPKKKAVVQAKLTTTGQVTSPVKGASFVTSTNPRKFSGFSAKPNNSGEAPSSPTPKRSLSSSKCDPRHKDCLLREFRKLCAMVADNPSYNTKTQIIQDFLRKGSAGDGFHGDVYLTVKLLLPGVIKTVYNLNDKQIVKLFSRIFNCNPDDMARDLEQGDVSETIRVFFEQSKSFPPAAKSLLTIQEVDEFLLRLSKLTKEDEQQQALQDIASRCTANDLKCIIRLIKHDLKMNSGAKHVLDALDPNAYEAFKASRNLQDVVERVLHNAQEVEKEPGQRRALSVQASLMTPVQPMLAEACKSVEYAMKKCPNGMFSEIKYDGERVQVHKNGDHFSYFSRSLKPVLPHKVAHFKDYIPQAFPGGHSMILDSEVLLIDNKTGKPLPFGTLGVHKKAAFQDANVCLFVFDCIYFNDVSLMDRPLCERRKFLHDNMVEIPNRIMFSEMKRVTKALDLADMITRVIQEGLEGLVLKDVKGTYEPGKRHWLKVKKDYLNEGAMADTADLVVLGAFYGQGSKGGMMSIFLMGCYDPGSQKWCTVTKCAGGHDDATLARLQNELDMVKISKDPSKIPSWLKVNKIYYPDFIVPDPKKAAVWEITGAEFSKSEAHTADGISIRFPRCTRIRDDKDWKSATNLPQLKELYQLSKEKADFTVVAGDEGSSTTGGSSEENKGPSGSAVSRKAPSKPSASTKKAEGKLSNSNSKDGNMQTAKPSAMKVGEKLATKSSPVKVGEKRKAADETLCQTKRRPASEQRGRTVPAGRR

[2] = target: T2, T3 DNA ligase (Enterobacteria phage T3?) (UniProt P07717); settings: T4 ligase buffer, 25 C 1 h
T2 sequence: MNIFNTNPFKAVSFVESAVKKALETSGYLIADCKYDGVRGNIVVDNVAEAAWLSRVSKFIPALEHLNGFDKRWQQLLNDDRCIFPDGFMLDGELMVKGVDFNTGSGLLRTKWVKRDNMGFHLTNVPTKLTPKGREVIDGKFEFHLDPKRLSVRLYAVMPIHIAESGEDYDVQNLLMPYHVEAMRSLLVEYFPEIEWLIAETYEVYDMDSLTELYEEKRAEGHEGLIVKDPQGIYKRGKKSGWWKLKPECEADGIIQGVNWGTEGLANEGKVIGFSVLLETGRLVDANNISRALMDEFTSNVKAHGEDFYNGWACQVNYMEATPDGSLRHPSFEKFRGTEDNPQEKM

[3] = target: T3, PBCV-1 DNA ligase (Paramecium bursaria Chlorella virus 1?) (UniProt O41026); settings: T4 ligase buffer, 25 C 1 h; library yield 50%
T3 sequence: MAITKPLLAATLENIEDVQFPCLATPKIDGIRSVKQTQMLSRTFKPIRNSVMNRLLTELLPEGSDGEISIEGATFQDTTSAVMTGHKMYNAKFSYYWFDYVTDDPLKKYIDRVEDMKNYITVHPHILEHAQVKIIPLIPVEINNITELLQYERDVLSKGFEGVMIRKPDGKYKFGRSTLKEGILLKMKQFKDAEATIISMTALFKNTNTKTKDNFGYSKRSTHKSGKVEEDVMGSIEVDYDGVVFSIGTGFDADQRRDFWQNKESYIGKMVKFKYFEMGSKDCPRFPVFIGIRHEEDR

[4] = target: T4, T4 DNA ligase (Enterobacteria phage T4?) (UniProt P00970)
T4 sequence: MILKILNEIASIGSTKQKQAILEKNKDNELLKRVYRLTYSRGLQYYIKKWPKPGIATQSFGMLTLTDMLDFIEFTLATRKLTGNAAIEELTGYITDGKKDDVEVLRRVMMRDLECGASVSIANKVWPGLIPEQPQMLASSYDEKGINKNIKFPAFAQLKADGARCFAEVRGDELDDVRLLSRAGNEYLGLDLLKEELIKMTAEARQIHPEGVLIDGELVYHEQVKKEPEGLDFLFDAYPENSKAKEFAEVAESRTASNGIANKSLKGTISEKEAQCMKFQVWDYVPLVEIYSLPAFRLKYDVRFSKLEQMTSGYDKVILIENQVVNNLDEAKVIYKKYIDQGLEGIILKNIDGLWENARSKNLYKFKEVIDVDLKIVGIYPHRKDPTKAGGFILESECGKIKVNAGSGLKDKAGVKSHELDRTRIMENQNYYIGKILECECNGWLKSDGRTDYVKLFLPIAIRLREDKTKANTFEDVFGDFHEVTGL

[5] = target: T5, T7 DNA ligase (Enterobacteria phage T7?) (UniProt P00969)
T5 sequence: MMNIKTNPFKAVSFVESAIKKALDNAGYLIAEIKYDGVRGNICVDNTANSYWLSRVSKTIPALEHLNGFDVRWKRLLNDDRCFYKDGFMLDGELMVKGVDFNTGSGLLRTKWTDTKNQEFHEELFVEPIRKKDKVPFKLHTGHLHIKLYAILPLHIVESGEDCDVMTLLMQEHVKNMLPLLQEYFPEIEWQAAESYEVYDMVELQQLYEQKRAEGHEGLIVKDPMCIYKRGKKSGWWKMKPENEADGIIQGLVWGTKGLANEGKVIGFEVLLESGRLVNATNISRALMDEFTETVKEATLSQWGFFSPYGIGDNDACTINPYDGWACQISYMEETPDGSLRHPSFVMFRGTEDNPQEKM

NNNN [randomized four-base 5' overhang hairpin library]
activity (% ligation fidelity) ([1]; T4 ligase buffer, 25 C 1 h, text p210 prints 56%): 44 | activity (% ligation fidelity) ([1]; with 6% PEG 6000): 49.7 | activity (% ligation fidelity) [2]: 59.2 | activity (% ligation fidelity) [3]: 77.2 | activity (% ligation fidelity) ([4]; SMRT sequencing, T4 ligase buffer, 10 mM MgCl2, 1 mM ATP, 25 C 1 h): 72.4 | activity (% ligation fidelity) ([4]; with 6% PEG 6000): 66.9 | activity (% ligation fidelity) ([5]; T4 ligase buffer, 25 C 1 h, library yield 20%): 88.8 | activity (% ligation fidelity) ([5]; with 6% PEG 6000): 77.9

From US20220177875
